This passage reports response results from article PMC11220742.

The target in assay [1] is HLA-A*2601 H chain (extracellular domain) refolded with human β2-microglobulin. Put plainly: in vitro refolding, gel filtration. The following applies: parent: est. 300; read off a plot. For orientation: In gel filtration, larger molecules generally elute earlier.
Assay [2] deals with HLA-A*0101 H chain (extracellular domain) refolded with human β2-microglobulin. Put plainly: in vitro refolding, gel filtration. The note with it: parent: est. 230; read off a plot.

EVF peptide (SARS-CoV-2 S 340–351) E1A: the response in assay [1] stood at 290 mAU. Turning to EVF peptide (SARS-CoV-2 S 340–351) F3D, in assay [2], the response came out at 330 mAU. Turning to EVF peptide (SARS-CoV-2 S 340–351) E1R, the response in assay [1] amounted to 100 mAU.
